B1: BIM0552 (antibody, human IgG1, lambda)
heavy: EVQLVESGGGLVQPGGSLRLSCAASGFTFSNDEMNWIRQAPGKGLEWVSYISSRSSTIYYADAVKGRFTISRDNARNSLYLQMNSLRAEDTAVYYCARGVDGDFSFDYWGQGTLVTVSSASTKGPSVFPLAPSSKSTSGGTAALGCLVKDYFPEPVTVSWNSGALTSGVHTFPAVLQSSGLYSLSSVVTVPSSSLGTQTYICNVNHKPSNTKVDKRVEPKSCDKTHTCPPCPAPELLGGPSVFLFPPKPKDTLMISRTPEVTCVVVDVSHEDPEVKFNWYVDGVEVHNAKTKPREEQYNSTYRVVSVLTVLHQDWLNGKEYKCKVSNKALPAPIEKTISKAKGQPREPQVCTLPPSREEMTKNQVSLSCAVKGFYPSDIAVEWESNGQPENNYKTTPPVLDSDGSFFLVSKLTVDKSRWQQGNVFSCSVMHEALHNHYTQKSLSLSPGK
light: QLVLTQPPSVSGAPGQRVTISCTGSSSNIGAGYDVHWYQQLPGTAPKLLIYGNSNRPSGVPDRFSGSKSGTSASLAITGLQAEDEADYYCQSYDSSLSEEVFGGGTKLTVLGQPKANPTVTLFPPSSEELQANKATLVCLISDFYPGAVTVAWKADGSPVKAGVETTKPSKQSNNKYAASSYLSLTPEQWKSHRSYSCQVTHEGSTVEKTVAPTECS
chain: not shown
notes: Heavy chain entry ends in X = K or absent; also called multispecific molecule 80; aCSF1R BI117 half-arm antibody
B2: BIM0549 (antibody, human IgG1, lambda)
heavy: B1 heavy with G99S, V100S, D103S, F104T
light: B1 light
chain: not shown
notes: Half-arm (monovalent) anti-human CSF1R antibody, three chains as BIM0542; Heavy chain entry ends in X = K or absent; also called multispecific molecule 77; aCSF1R BI117 A6-R3B half-arm antibody
B3: BIM0547 (antibody, human IgG1, lambda)
heavy: B1 heavy with S52T, R54K
light: B1 light
chain: not shown
notes: Half-arm (monovalent) anti-human CSF1R antibody, three chains as BIM0542; Heavy chain entry ends in X = K or absent; also called multispecific molecule 75; aCSF1R BI117 G12-R2B half-arm antibody
B4: BIM0542 (antibody, human IgG1, lambda)
heavy: B1 heavy with R54G
light: B1 light
chain: not shown
notes: Heavy chain entry ends in X = K or absent; also called multispecific molecule 70; aCSF1R BI117 C5-R2A half-arm antibody
B5: BIM0553 (antibody, human IgG1, lambda)
heavy: B1 heavy with Y108F
light: B1 light
chain: not shown
notes: Half-arm (monovalent) anti-human CSF1R antibody, three chains as BIM0542; Heavy chain entry ends in X = K or absent; also called multispecific molecule 81; aCSF1R BI117 C5-R3B half-arm antibody
B6: BIM0544 (antibody, human IgG1, lambda)
heavy: B1 heavy with G99N, V100S, G102E, F104G
light: B1 light
chain: not shown
notes: Half-arm (monovalent) anti-human CSF1R antibody, three chains as BIM0542; Heavy chain entry ends in X = K or absent; also called multispecific molecule 72; aCSF1R BI117 D1-R2A half-arm antibody
B7: BIM0567 (antibody, human IgG1, lambda)
heavy: B1 heavy with D101E, G102S
light: B1 light
chain: not shown
notes: Half-arm (monovalent) anti-human CSF1R antibody, three chains as BIM0542; Heavy chain entry ends in X = K or absent; also called multispecific molecule 86; aCSF1R BI117 D11-R3B half-arm antibody
B8: BIM0546 (antibody, human IgG1, lambda)
heavy: B1 heavy with Y108V
light: B1 light
chain: not shown
notes: Half-arm (monovalent) anti-human CSF1R antibody, three chains as BIM0542; Heavy chain entry ends in X = K or absent; also called multispecific molecule 74; aCSF1R BI117 G1-R2B half-arm antibody
B9: BIM0543 (antibody, human IgG1, lambda)
heavy: B1 heavy with Y50F, S53G, R54G
light: B1 light
chain: not shown
notes: Half-arm (monovalent) anti-human CSF1R antibody, three chains as BIM0542; Heavy chain entry ends in X = K or absent; also called multispecific molecule 71; aCSF1R BI117 C9-R2A half-arm antibody
B10: BIM0550 (antibody, human IgG1, lambda)
heavy: B1 heavy with R54S, K65T
light: B1 light
chain: not shown
notes: Half-arm (monovalent) anti-human CSF1R antibody, three chains as BIM0542; Heavy chain entry ends in X = K or absent; also called multispecific molecule 78; aCSF1R BI117 A11-R3B half-arm antibody
B11: BIM0545 (antibody, human IgG1, lambda)
heavy: B1 heavy with S52T, R54K, A63S
light: B1 light
chain: not shown
notes: Half-arm (monovalent) anti-human CSF1R antibody, three chains as BIM0542; Heavy chain entry ends in X = K or absent; also called multispecific molecule 73; aCSF1R BI117 E2-R2B half-arm antibody
B12: BIM0566 (antibody, human IgG1, lambda)
heavy: B1 heavy with G99S, V100G, D101R, G102L, F104G
light: B1 light
chain: not shown
notes: Half-arm (monovalent) anti-human CSF1R antibody, three chains as BIM0542; Heavy chain entry ends in X = K or absent; also called multispecific molecule 85; aCSF1R BI117 C6-R3B half-arm antibody
B13: BIM0551 (antibody, human IgG1, lambda)
heavy: B1 heavy with G99N, V100S, G102S, F104G, Y108I
light: B1 light
chain: not shown
notes: Half-arm (monovalent) anti-human CSF1R antibody, three chains as BIM0542; Heavy chain entry ends in X = K or absent; also called multispecific molecule 79; aCSF1R BI117 B2-R3B half-arm antibody
B14: BIM0555 (antibody, human IgG1, lambda)
heavy: not shown
light: SLVLTQPPSVSVAPGKTARITCGGNNIGSKSVHWYQQKPGQAPVLVVYDDSDRPSGIPERFSGSNSGNTATLTISRVEAGDEADYYCQVWDSSSDHVVFGGGTQLTVLGQPKANPTVTLFPPSSEELQANKATLVCLISDFYPGAVTVAWKADGSPVKAGVETTKPSKQSNNKYAASSYLSLTPEQWKSHRSYSCQVTHEGSTVEKTVAPTECS
chain: not shown
notes: Half-arm (monovalent) anti-human CSF1R antibody, three chains as BIM0542; Heavy chain entry ends in X = K or absent; also called multispecific molecule 83; aCSF1R BI123 B6-R3B half-arm antibody
B15: BIM0556 (antibody, human IgG1, lambda)
heavy: not shown
light: B14 light
chain: not shown
notes: Half-arm (monovalent) anti-human CSF1R antibody, three chains as BIM0542; Heavy chain entry ends in X = K or absent; also called multispecific molecule 84; aCSF1R BI123 C1-R3B half-arm antibody
B16: BIM0548 (antibody, human IgG1, lambda)
heavy: B1 heavy with G99S, F104G
light: B1 light
chain: not shown
B17: BIM0554 (antibody, human IgG1, lambda)
heavy: not shown
light: B14 light
chain: not shown

The values below come from patent US20220242957A1 (MARENGO THERAPEUTICS, published 2022).

Positions count from the first letter of the chain named. Names and notes keep the numbering of the source.

T2 sequence (P07333 20-517): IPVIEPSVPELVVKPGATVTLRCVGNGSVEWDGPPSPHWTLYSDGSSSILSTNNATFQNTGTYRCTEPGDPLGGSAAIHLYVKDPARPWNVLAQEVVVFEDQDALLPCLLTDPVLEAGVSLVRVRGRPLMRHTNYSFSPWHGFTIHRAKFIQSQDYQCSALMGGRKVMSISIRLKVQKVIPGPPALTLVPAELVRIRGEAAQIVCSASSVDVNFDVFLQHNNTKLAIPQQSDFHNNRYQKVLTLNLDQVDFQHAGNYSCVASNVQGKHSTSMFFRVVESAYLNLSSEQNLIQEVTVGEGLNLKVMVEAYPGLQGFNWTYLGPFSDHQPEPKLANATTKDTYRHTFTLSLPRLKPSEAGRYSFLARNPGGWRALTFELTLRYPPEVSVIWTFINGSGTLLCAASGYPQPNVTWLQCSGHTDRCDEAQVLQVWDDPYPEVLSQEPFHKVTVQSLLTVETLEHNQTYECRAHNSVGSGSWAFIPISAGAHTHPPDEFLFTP

The first test deals with T1, human CSF1R (human, UniProt P07333 20-972).
T1 construct: whole, on cells; also called hCSF1R
T1 sequence (P07333 20-972): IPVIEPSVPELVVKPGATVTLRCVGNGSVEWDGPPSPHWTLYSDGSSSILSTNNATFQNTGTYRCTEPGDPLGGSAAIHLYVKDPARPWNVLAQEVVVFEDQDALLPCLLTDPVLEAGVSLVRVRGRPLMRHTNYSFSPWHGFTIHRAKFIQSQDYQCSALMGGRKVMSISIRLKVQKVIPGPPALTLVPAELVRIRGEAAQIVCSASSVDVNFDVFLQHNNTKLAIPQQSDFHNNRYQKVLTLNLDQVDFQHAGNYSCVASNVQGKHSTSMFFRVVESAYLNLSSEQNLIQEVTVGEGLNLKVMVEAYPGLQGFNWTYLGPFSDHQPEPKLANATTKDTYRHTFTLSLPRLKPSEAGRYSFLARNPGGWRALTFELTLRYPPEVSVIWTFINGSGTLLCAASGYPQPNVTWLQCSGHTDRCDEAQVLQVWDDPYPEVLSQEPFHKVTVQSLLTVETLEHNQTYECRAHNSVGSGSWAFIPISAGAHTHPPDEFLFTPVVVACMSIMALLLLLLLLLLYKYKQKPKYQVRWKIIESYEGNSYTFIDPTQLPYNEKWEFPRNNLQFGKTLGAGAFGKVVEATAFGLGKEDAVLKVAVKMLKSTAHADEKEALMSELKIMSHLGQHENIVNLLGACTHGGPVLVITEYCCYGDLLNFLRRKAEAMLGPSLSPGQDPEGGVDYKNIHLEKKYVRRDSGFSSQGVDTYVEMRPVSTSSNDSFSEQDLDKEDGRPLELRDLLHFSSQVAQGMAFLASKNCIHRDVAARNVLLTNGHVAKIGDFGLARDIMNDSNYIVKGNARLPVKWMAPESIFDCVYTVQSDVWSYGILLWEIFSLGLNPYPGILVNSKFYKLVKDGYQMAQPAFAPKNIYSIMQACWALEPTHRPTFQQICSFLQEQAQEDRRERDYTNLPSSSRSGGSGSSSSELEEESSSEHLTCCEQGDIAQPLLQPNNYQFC
Briefly: flow cytometry on HEK-293T cells stably transduced with human CSF1R; anti-human Fc APC; percent APC positive. On the procedure:
HEK-293T cells were lentivirally transduced with human CSF1R and stable cell lines were generated. Nearly all transduced cells expressed high levels of CSF1R. Cells were washed with PBS containing 0.5% BSA and 0.1% sodium azide (staining buffer) and added to 96-well V-bottom plates with 100,000 cells/well. Human anti-CSF1R monovalent antibodies were added to the cells in 2.5 fold serial dilutions and incubated for 2 hour at room temperature. The plates were washed twice with staining buffer. The secondary antibody against human Fc conjugated to APC was added at 1:200 dilution (1.5 mg/ml stock) and incubated with the cells for 1 hour at 4° C. followed by washing with staining buffer. Cells were subsequently stained with a live/dead dye to exclude any dying cells and were fixed for 10 minutes with 4% paraformaldehyde at room temperature. The plates were read on CytoFLEX LS (Beckman Coulter). Data was calculated as the percent-APC positive population.
For the molecule B1, the binding result is “binds”. Regarding B2, the binding result is “binds”. As for B3, the binding result was “binds”. In the case of B4, the binding result is given as “binds”.

B5: the binding result was “binds”. In the case of B6, the binding result is recorded as “binds”.

Take B7: the binding result is on record as “binds”. For the molecule B8, the binding result is “binds”. Consider B9, for which the binding result is “binds”. Same read-out and setting: for B10 the value was “binds”. For the molecule B11, the binding result was “binds”. For B12, the binding result is reported as “binds”.

For the molecule B13, the binding result was “binds”. As for B14, the binding result is “binds”.

B15: the binding result is listed as “binds”.

The next test addresses T1, human CSF1R. In words: cell-based or functional assay.
For B16, the “IC50 of reduction of MCP-1 (CCL2) secretion by human monocytes cultured with hCSF-1 (electrochemiluminescence)” value is at most 30 nM. With B17, the “IC50 of reduction of MCP-1 (CCL2) secretion by human monocytes cultured with hCSF-1 (electrochemiluminescence)” value was at most 30 nM.

The next test addresses T2, human CSF1R-Fc ECD (human, UniProt P07333 20-517).
T2 construct: extracellular domain; not shown: Fc part of the coated reagent, not described
Briefly: ELISA, plate coated with 2 µg/mL human CSF1R, monovalent antibody titrated, anti-human Fc HRP. On the procedure:
Microplates were separately coated with 2 μg/mL of human or cyno CSF1R in 100 μL and blocked with 2% BSA. Serial dilutions of unlabeled monovalent human antibodies (11 points, 3-fold dilutions, 400 nM to […]) were transferred to the coated and blocked plates at 75 μL/well and incubated for 1 hr at room temperature. Plates were washed three times and incubated for 30 mins with anti-human Fc horseradish peroxidase conjugate followed by addition of TMB, a substrate of HRP. The plates were developed for 5 mins, stopped with 1M HCL and read at a wavelength of 450 nm.
(In general: In an ELISA, binding on a coated surface is turned into a signal by an enzyme label.)
As to B1, the binding result is “binds”. Take B2: the binding result is “binds”. Take B3: the binding result is recorded as “binds”.

As for B4, the binding result was “binds”. Still for that read-out and setting: for B5 the value was “binds”; for B6, “binds”.

On to B7, for which the binding result is on record as “binds”.

Regarding B8, the binding result is recorded as “binds”. B9: the binding result was “binds”. For the molecule B10, the binding result is “binds”.

Take B11: the binding result is on record as “binds”. Regarding B12, the binding result was “binds”. For B13, the binding result is given as “binds”. Turning to B14, the binding result is recorded as “binds”. In the case of B15, the binding result is listed as “binds”.
